{"source": "paper PMC2917185", "binders": {"B1": {"name": "cpSRP43 (mature), O22265 57-373 (natural protein)", "chain": "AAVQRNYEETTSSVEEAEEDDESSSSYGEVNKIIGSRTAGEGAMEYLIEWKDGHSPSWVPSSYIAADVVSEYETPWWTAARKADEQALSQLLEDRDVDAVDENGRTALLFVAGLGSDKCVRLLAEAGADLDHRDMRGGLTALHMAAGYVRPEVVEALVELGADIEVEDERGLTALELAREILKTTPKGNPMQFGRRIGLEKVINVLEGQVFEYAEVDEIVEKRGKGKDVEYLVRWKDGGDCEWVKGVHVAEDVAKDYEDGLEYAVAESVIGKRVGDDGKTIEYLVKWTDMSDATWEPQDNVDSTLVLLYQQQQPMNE"}}, "key": {"[1]": {"biological_target": "T1, LHCP (light-harvesting chlorophyll a/b binding protein), fluorescein-labeled, P07371", "assay": "fluorescence polarisation", "details": "remark: other sources report otherwise"}, "[2]": {"biological_target": "T1, LHCP (light-harvesting chlorophyll a/b …)", "assay": "fluorescence polarisation", "details": "remark: other sources report otherwise", "remark": "listed apart in the source"}}, "data": [{"binder": "B1", "values": [{"measurement": "Kd", "setting": "[1]", "value": 296, "unit": "nM"}, {"measurement": "Kd", "setting": "[2]", "value": 138, "unit": "nM"}]}]}
